Laboratory results: patent publication US12534534 (F STAR BETA, dated 2026)
Positions count from the first letter of the chain named. Names may count otherwise.

T1: TNFRSF1B-Fc (human, UniProt P20333 23-257)
T1 construct: bought; also called TNFRSF1B (R&D Systems, 726-R2-050); not shown: Fc part of the bought fusion
T1 sequence (looked up): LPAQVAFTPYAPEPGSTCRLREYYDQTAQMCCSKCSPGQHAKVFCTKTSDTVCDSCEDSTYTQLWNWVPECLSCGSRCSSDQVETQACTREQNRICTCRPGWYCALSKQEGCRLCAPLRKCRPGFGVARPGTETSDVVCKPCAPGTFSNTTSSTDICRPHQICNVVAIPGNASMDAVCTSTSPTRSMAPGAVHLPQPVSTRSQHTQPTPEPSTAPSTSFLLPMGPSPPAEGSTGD

T2: GITR-hFc-Avi (human, UniProt Q9Y5U5 26-161)
T2 construct: in-house produced; not shown: hFc and Avi part
T2 sequence: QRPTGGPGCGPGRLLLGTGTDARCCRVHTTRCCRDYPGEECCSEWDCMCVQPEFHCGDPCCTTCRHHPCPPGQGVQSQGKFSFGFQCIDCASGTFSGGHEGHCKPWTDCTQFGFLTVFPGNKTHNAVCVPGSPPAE

T3: NGFR-Fc (human, UniProt P08138 29-250)
T3 construct: bought; also called NGFR (R&D Systems, 367-NR-050/CF); not shown: Fc part of the bought fusion
T3 sequence (looked up): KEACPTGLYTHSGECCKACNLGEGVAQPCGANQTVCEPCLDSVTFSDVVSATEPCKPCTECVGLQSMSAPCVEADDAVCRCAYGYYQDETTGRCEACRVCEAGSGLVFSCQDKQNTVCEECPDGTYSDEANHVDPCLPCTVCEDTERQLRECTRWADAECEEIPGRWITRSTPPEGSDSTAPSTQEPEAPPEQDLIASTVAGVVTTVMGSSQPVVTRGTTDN

T4: DR6-Fc (human, UniProt O75509 42-349, limits assumed)
T4 construct: bought; also called human DR6 (R&D Systems, 144-DR-100); not shown: Fc part of the bought fusion
T4 sequence (looked up): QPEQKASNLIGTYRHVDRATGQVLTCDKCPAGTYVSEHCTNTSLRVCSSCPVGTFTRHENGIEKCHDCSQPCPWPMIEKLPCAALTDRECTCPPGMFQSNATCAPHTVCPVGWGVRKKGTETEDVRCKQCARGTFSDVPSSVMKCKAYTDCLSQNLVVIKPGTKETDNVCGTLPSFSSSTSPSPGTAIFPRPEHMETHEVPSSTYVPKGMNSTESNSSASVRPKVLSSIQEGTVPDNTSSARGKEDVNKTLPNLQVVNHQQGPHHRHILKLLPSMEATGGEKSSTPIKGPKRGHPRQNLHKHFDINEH

T5: cCD137-mFc-Avi (cynomolgus, Homodimer through the mouse Fc (one chain given). In the biotinylated version one biotin sits on the Avi-tag lysine of each monomer.)
T5 construct: dimer; biotinylated version used on streptavidin plates; also called cyno CD137-mFc-Avi; cyno CD137-mFc
T5 chain: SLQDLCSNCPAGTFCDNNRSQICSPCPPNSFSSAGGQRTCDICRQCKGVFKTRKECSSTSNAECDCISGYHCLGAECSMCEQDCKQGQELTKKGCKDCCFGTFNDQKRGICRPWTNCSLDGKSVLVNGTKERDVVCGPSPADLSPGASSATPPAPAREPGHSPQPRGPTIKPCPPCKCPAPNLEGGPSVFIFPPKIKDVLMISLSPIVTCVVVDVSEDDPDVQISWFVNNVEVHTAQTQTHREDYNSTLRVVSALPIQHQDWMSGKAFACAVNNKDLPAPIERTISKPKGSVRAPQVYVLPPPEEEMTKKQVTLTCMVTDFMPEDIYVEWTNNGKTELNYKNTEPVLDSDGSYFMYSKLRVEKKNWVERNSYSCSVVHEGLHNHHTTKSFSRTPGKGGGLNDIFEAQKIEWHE

B1: FS20-22-49AA/FS30-5-37 (bispecific antibody, human IgG1, kappa, L234A L235A, V domains shown)
VH: EVQLLESGGGLVQPGGSLRLNCAASGFTFSSYAMSWVRQAPGKGLEWVSAISGSGGSTYYADSVKGRFTISRDNSKNTLYLQMNSLRAEDTAVYYCARSYDKYWGSSIYSGLDYWGQGTLVTVSS
VL: EIVLTQSPGTLSLSPGERATLSCRASQSVSSSYLAWYQQKPGQAPRLLIYGASSRATGIPDRFSGSGSGTDFTLTISRLEPEDFAVYYCQQYYSYYPVTFGQGTKVEIKR
notes: M100D to I and M100H to L against FS30-5; also called FS30-5-37 in mAb^2 format
B2: FS20-22-49AA/FS30-35-14 (bispecific antibody, human IgG1, kappa, L234A L235A, V domains shown)
VH: EVQLLESGGGLVQPGGSLRLSCAASGFTFSAYNIHWVRQAPGKGLEWVSDISPYGGATNYADSVKGRFTISRDNSKNTLYLQMNSLRAEDTAVYYCARNLYELSAYSYGADYWGQGTLVTVSS
VL: B1 VL with S94Y, Y95S, Y96S, V98I
notes: M100F (Kabat) to A against FS30-35; also called FS30-35-14 in mAb^2 format
B3: FS20-22-49AA/FS30-10-3 (bispecific antibody, human IgG1, kappa, L234A L235A, V domains shown)
VH: EVQLLESGGGLVQPGGSLRLSCAASGFTFSSYDMSWVRQAPGKGLEWVSDIDPTGSKTDYADSVKGRFTISRDNSKNTLYLQMNSLRAEDTAVYYCARDLNVYGFDYWGQGTLVTVSS
VL: EIVLTQSPGTLSLSPGERATLSCRASQSVSSSYLAWYQQKPGQAPRLLIYGASSRATGIPDRFSGSGSGTDFTLTISRLEPEDFAVYYCQQSYSYPVTFGQGTKVEIKR
notes: M97 (Kabat) to N against FS30-10; also called FS30-10-3 in mAb^2 format
B4: FS20-22-49AA/FS30-10-16 (bispecific antibody, human IgG1, kappa, L234A L235A, V domains shown)
VH: B3 VH with N101L
VL: B3 VL
notes: M97 (Kabat) to L against FS30-10; also called FS30-10-16 in mAb^2 format
B5: FS20-22-49AA/FS30-10-12 (bispecific antibody, human IgG1, kappa, L234A L235A, V domains shown)
VH: B3 VH with N101T
VL: B3 VL
notes: M97 (Kabat) to T against FS30-10; also called FS30-10-12 in mAb^2 format

molecular target: T1, TNFRSF1B-Fc; test: SPR, antigen immobilised on CM5 chip

**Q.** Does B1 bind?
**A.** no binding (tested: 1 µM (protocol of Example 3.1))

**Q.** Does B2 bind?
**A.** no binding (tested: 1 µM (protocol of Example 3.1))

**Q.** Does B3 bind?
**A.** no binding (tested: 1 µM (protocol of Example 3.1))

**Q.** Does B4 bind?
**A.** no binding (tested: 1 µM (protocol of Example 3.1))

**Q.** Does B5 bind?
**A.** no binding (tested: 1 µM (protocol of Example 3.1))

molecular target: T2, GITR-hFc-Avi; test: SPR, antigen immobilised on CM5 chip

**Q.** Does B1 bind?
**A.** no binding (tested: 1 µM (protocol of Example 3.1))

**Q.** Does B2 bind?
**A.** no binding (tested: 1 µM (protocol of Example 3.1))

**Q.** Does B3 bind?
**A.** no binding (tested: 1 µM (protocol of Example 3.1))

**Q.** Does B4 bind?
**A.** no binding (tested: 1 µM (protocol of Example 3.1))

**Q.** Does B5 bind?
**A.** no binding (tested: 1 µM (protocol of Example 3.1))

molecular target: T3, NGFR-Fc; test: SPR, antigen immobilised on CM5 chip

**Q.** Does B1 bind?
**A.** no binding (tested: 1 µM (protocol of Example 3.1))

**Q.** Does B2 bind?
**A.** no binding (tested: 1 µM (protocol of Example 3.1))

**Q.** Does B3 bind?
**A.** no binding (tested: 1 µM (protocol of Example 3.1))

**Q.** Does B4 bind?
**A.** no binding (tested: 1 µM (protocol of Example 3.1))

**Q.** Does B5 bind?
**A.** no binding (tested: 1 µM (protocol of Example 3.1))

molecular target: T6, CD40-mFc (human, UniProt P25942 21-193); test: SPR, antigen immobilised on CM5 chip
T6 construct: in-house produced; not shown: mFc part
T6 sequence (P25942 21-193): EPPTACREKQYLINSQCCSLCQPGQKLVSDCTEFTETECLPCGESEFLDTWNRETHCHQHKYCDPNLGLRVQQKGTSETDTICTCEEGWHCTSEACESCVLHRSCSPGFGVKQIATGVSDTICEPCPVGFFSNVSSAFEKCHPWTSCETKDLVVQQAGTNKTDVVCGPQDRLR

**Q.** Does B1 bind?
**A.** no binding (tested: 1 µM (protocol of Example 3.1))

**Q.** Does B2 bind?
**A.** no binding (tested: 1 µM (protocol of Example 3.1))

**Q.** Does B3 bind?
**A.** no binding (tested: 1 µM (protocol of Example 3.1))

**Q.** Does B4 bind?
**A.** no binding (tested: 1 µM (protocol of Example 3.1))

**Q.** Does B5 bind?
**A.** no binding (tested: 1 µM (protocol of Example 3.1))

molecular target: T4, DR6-Fc; test: SPR, antigen immobilised on CM5 chip

**Q.** Does B1 bind?
**A.** no binding (tested: 1 µM (protocol of Example 3.1))

**Q.** Does B2 bind?
**A.** no binding (tested: 1 µM (protocol of Example 3.1))

**Q.** Does B3 bind?
**A.** no binding (tested: 1 µM (protocol of Example 3.1))

**Q.** Does B4 bind?
**A.** no binding (tested: 1 µM (protocol of Example 3.1))

**Q.** Does B5 bind?
**A.** no binding (tested: 1 µM (protocol of Example 3.1))

molecular target: T7, hCD137-mFc-Avi (human, UniProt Q07011 24-186); test: SPR (Biacore 3000), mAb^2 captured by anti-human Fc, dimeric CD137-mFc as analyte, 1:1 model with mass transfer
T7 construct: dimer; also called human CD137-mFc-Avi; human CD137-mFc
T7 sequence (Q07011 24-186): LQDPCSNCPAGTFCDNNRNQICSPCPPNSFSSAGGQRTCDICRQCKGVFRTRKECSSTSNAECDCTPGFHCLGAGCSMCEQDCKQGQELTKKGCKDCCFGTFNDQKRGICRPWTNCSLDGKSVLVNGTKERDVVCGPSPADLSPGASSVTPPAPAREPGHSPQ
Description: (§1) Briefly, 25 µg/ml anti-human IgG (Fc) antibody (GE Healthcare, Human Antibody Capture Kit, BR100839) was coated on flow cells 1, 2, 3 and 4 of a Biacore sensor chip CM5 (GE Healthcare, BR100012) for 3 minutes at 5 µl/min, achieving a final response of approximately 4300 RU. The mAb² clones, diluted in HBS-EP buffer (GE Healthcare, BR100188) at 0.5 µg/ml, were injected individually on flows cell 2, 3 and 4 at 30 µl/min to achieve a response of approximately 80 RU. […] Regeneration was achieved by injecting 3 M magnesium chloride (GE Healthcare, Human Antibody Capture Kit, BR100839) for 30 seconds at a rate of 30 µl/min. […] These slightly less stringent conditions were used to assess whether this molecule could bind to cyno CD137-mFc. Subtracted data (flow cell 2-flow cell 1, flow cell 3-flow cell 1, or flow cell 4-flow cell 1) were analysed using BIAevaluation 3.2 Software (GE Healthcare) to identify binding using the model 1:1 binding with mass transfer, with refractive index (RI) constant 0.

**Q.** With B1 as the binder, how does the Kd read?
**A.** 3.45 nM

**Q.** For B2, which Kd is on record?
**A.** 0.6 nM

**Q.** B3 was tested. Which Kd did it give?
**A.** 0.19 nM

**Q.** With B4 as the binder, how does the Kd read?
**A.** 0.17 nM

**Q.** How did the Kd turn out when B5 was run?
**A.** 6.31 nM

Molecular target: T5, cCD137-mFc-Avi
Test: as above
Description: as §1

**Q.** B1 was tested. Which Kd did it give?
**A.** 3 nM

**Q.** Which Kd does the source give for B2 here?
**A.** 0.67 nM

**Q.** B3 was tested. Which Kd did it give?
**A.** 0.22 nM

**Q.** How did the Kd turn out when B4 was run?
**A.** 0.15 nM

**Q.** Which Kd does the source give for B5 here?
**A.** 4.63 nM
